IC50 for inhibition of rrnB P1 transcription, multiround in vitro transcription with E. coli RNAP (4 nM to 2,000 nM factor) data for one substance are collected here from publication PMC9239242.

For this test, the target named is E. coli RNA polymerase holoenzyme (native) (E. coli) (UniProt P0A8V2).

On to “P2 Orf82 (Orf82 from Enterobacteria phage P2) (natural protein)”, for which the IC50 for inhibition of rrnB P1 transcription, multiround in vitro transcription with E. coli RNAP (4 nM to 2,000 nM factor) was 250 nM.
